One substance from patent US5928941 can be followed below.

This data set deals with RKLF full length (Homo sapiens). The data set is described as follows: cell_activity. The settings on record: BAEC cotransfection, CAT repression.

The substance “CAC-tkCAT reporter (single beta-globin CACCC site)” displayed an activity (% decrease in promoter activity) of 90.
